Assay results published in EP2545075B1 (NovelMed Therapeutics, Inc., dated 2020).
Blank lines part the entries; values can stand above or below the binder they belong to.

Columns and labels:
human properdin [1] = target: T1, human properdin (human, UniProt P27918 28-469); experiment: Properdin binding assay (Fig. 27)
T1 construct: also called antigen properdin

human properdin [2] = target: T1, human properdin; experiment: cell-based or functional assay
human properdin [3] = target: T1, human properdin; experiment: Properdin ELISA
human properdin [4] = target: T1, human properdin; experiment: Competition ELISA: properdin (50 nM) plus antibody on C3b-coated wells

T1 sequence (P27918 28-469 limits assumed): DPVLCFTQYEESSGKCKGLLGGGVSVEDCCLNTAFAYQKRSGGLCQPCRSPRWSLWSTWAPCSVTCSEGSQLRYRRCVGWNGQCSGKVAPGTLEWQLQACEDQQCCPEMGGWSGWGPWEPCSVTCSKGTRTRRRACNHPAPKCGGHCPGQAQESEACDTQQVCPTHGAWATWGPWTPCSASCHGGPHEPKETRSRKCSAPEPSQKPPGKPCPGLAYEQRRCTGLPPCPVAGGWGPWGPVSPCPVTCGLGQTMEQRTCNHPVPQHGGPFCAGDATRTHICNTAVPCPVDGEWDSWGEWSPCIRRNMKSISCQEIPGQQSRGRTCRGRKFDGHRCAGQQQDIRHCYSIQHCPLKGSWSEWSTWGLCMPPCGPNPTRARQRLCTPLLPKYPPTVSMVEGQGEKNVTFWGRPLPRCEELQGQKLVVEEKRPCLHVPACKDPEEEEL

binding result (human properdin [1]): binds
B1: BAP010hum03 (antibody, human IgG1, V domains shown)
VH: EVQLVQSGAEVKKPGESLRISCKGSGYIFTNYPIHWIRQSPSRGLEWLGFIDPGGGYDEPDERFRDRVTISADKSISTAYLQWSSLKASDTAMYYCARRGGGYYLDYWGQG
VL: DIQMTQSPSSLSASVGDRVTITCRASQDISFFLNWYQQKPGKAPKLLIYYTSRYHSGVPSRFSGSGSGTEFTLTISSLQSEDFAVYYCQHGNTLPWTFGQG
notes: Humanized clone; The variable domains were cloned into the mammalian expression vector used for human IgG1/kappa; also called BAP010hum03_HC

binding result (human properdin [1]): binds
B2: BAP010hum10 (antibody, human IgG1, V domains shown)
VH: QVQLQESGPGLVKPSQTLSLTCTVSGYIFTNYPIHWVRQATGQGLEWMGFIDPGGGYDEPDERFRDRVTITADKSTSTAYMELSSLRSEDTAVYYCARRGGGYYLDYWGQG
VL: DIQMTQSPSSLSASVGDRVTITCRASQDISFFLNWYQQKPGKAPKLLIYYTSRYHSGIPPRFSGSGYGTEFTFTISSLEAEDAATYYCQHGNTLPWTFGQG
notes: Humanized clone; The variable domains were cloned into the mammalian expression vector used for human IgG1/kappa; also called BAP010hum10_HC

IC50 of inhibition in erythrocyte lysis assay using rabbit erythrocytes (human properdin [2]): 20 to 30 nM
B3: NM9401-IgG (antibody, V domains shown)
VH: QVQLQQSAPELARPGASVKMSCTASGYIFTNYPIHWVKQRPGQGLEWIGFIDPGGGYDEPDERFRDRATLTADKSSSTAYMQLSSLTSEDSAIYYCARRGGGYYLDYWGQGTTLTVSS
VL: DIQMTQTTSSLSASLGDRVTISCRASQDISFFLNWYQQKPDGTVKLLIYYTSRYHSGVPSRFSGSGSGTDFSLTINNLEQEDFATYFCQHGNTLPWTFGGGTKLEIK
modifications: Biotinylated in Example 5 (site not stated).

Kd (human properdin [3]): ~0.054 nM
IC50 of inhibition in erythrocyte lysis assay using rabbit erythrocytes (human properdin [2]): 20 to 30 nM
B4: BAP010_1 (antibody, IgG1, V domains shown)
VH: QVQLQQSAPELARPGASVKMSCTASGYIFTNYPIHWVKQRPGQGLEWIGFIDPGGGYDEPDERFRDRATLTADKSSSTAYMQLSSLTSEDSAIYYCARRGGGYYLDYWGQGTTLTVSS
VL: DIQMTQTTSSLSASLGDRVTISCRASQDISFFLNWYQQKPDGTVKLLIYYTSRYHSGVPSRFSGSGSGTDFSLTINNLEQEDFATYFCQHGNTLPWTFGGGTKLEIK
notes: Chimeric full-length IgG1/kappa carrying the variable domains of NM9401, expressed in CHO-S cells; also called chimeric anti-properdin monoclonal antibody; recombinant antibody BAP010_1

IC50 (human properdin [4]): 72 nM
molar ratio of antibody to properdin (human properdin [4]): 1.2
B5: NM9401-Fab (Fab, V domains shown)
VH: QVQLQQSAPELARPGASVKMSCTASGYIFTNYPIHWVKQRPGQGLEWIGFIDPGGGYDEPDERFRDRATLTADKSSSTAYMQLSSLTSEDSAIYYCARRGGGYYLDYWGQGTTLTVSS
VL: DIQMTQTTSSLSASLGDRVTISCRASQDISFFLNWYQQKPDGTVKLLIYYTSRYHSGVPSRFSGSGSGTDFSLTINNLEQEDFATYFCQHGNTLPWTFGGGTKLEIK
notes: Fab fragment of the murine antibody NM9401; also called anti-properdin Fab

IC50 (human properdin [4]): 29 nM
molar ratio of antibody to properdin (human properdin [4]): 0.5
B6: NM9401-F(ab')2 (other)
VH: QVQLQQSAPELARPGASVKMSCTASGYIFTNYPIHWVKQRPGQGLEWIGFIDPGGGYDEPDERFRDRATLTADKSSSTAYMQLSSLTSEDSAIYYCARRGGGYYLDYWGQGTTLTVSS
VL: DIQMTQTTSSLSASLGDRVTISCRASQDISFFLNWYQQKPDGTVKLLIYYTSRYHSGVPSRFSGSGSGTDFSLTINNLEQEDFATYFCQHGNTLPWTFGGGTKLEIK
modifications: F(ab')2 has two identical arms joined by hinge disulfides. The letters give one arm's variable domains.
notes: F(ab')2 fragment of the murine antibody NM9401; also called anti-properdin F(ab')2

binding result (human properdin [1]): binds
B7: BAP010hum02 (antibody, human IgG1, V domains shown)
VH: QVQLQESGPGLVKPSQTLSLTCTVSGYIFTNYPIHWVRQAPGKGLEWVSFIDPGGGYDEPDERFRDRVTISVDTSKNQFSLKLSSVTAADTAVYYCARRGGGYYLDYWGQG
VL: EIVLTQSPATLSLSPGERATLSCRASQDISFFLNWFQQRPGQSPRRLIYYTSRYHSGIPPRFSGSGYGTDFTLTINNIESEDAAYYFCQHGNTLPWTFGQG
notes: Humanized clone; The variable domains were cloned into the mammalian expression vector used for human IgG1/kappa; also called BAP010hum02_HC
